Values of other authors as cited in patent publication US20230212279A1, “TREATMENT AND PREVENTION OF DISEASE CAUSED BY TYPE IV COLLAGEN DYSFUNCTION” (Singapore Health Services PTE, LTD., priority 2020, published 2023).

Molecular target: T1, IL-11Rα (Homo sapiens, UniProt Q14626)
T1 sequence (Q14626 23-422): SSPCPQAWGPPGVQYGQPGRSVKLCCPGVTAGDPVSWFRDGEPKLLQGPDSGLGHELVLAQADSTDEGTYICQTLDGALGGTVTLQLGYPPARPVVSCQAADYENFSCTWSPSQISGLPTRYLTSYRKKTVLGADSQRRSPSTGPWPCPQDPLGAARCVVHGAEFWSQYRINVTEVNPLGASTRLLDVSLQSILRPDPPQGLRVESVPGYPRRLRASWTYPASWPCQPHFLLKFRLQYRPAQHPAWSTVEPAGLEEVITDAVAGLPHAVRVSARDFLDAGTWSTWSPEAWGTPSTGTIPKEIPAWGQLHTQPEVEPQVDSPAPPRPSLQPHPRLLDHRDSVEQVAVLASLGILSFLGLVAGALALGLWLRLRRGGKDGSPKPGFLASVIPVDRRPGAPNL
Settings: IL-11 binding to IL-11Rα alone, low affinity; cited from earlier work

B1: IL-11: pleiotropic cytokine, member of the IL-6 family of cytokines (protein)
chain: PGPPAGSPRVSSDPRADLDSAVLLTRSLLADTRQLAAQMRDKFPADGDHSLDSLPTLAMSAGTLGSLQLPGVLTRLRVDLMSYLRHVQWLRRAGGPSLKTLEPELGALQARLERLLRRLQLLMSRLALPQAAPDQPVIPLGPPASAWGSIRAAHAILGGLHLTLDWAVRGLLLLKTRL
- Kd: ~22 nM
